Experimental data as given in patent publication US20190054150A1 (AEQUUS BIOPHARMA, published 2019).
Square brackets hold non-standard residues; d marks the D form. Ends that are not written are not given here. Nle = CCCC[C@H](N)C(=O)O; βAla = NCCC(=O)O

B1: NDP-α-MSH-linker-MMP site-linker-ACTH1-24 (peptide)
peptide: Ac-SYS[Nle]EH[dF]RWGKPVGGGGSPLGLWAGGGGSSYSMEHFRWGKPVGKKRRPVKVYP
B2: NDP-ACTH4-9-ACTH1-24 (peptide)
peptide: XEHXRWSYSMEHFRWGKPVGKKRRPVKVYP
modifications: Nle at position 1 and dPhe at position 4 as printed: Nle-EH-dPhe-RWSYSMEHFRWGKPVGKKRRPVKVYP
B3: ACTH1-24-linker-MMP site-linker-NDP-α-MSH (peptide)
peptide: SYSMEHFRWGKPVGKKRRPVKVYPGGGGSPLGLWAGGGGSSYS[Nle]EH[dF]RWGKPV
modifications: ends and bridges not checked
B4: NDP-α-MSH-linker-MMP (broad) site-linker-ACTH1-24 (peptide)
peptide: Ac-SYS[Nle]EH[dF]RWGKPVGGGGSPAGLVAGGGGSSYSMEHFRWGKPVGKKRRPVKVYP
B5: ACTH1-24-natural C-terminal spacer-NDP-α-MSH (peptide)
peptide: SYSMEHFRWGKPVGKKRRPVKVYPELTGQRLREGDGPDGPADDGAGASYS[Nle]EH[dF]RWGKPV
modifications: ends and bridges not checked
B6: NDP-ACTH4-9-βAla-G-βAla-ACTH1-24 (peptide)
peptide: XEHXRWAGASYSMEHFRWGKPVGKKRRPVKVYP
modifications: Nle, dPhe and β-Ala residues as printed: Nle-EH-dPhe-RW-β-Ala-G-β-Ala-SYSMEHFRWGKPVGKKRRPVKVYP
B7: ACTH1-24-natural N-terminal spacer-NDP-α-MSH (peptide)
peptide: SYSMEHFRWGKPVGKKRRPVKVYPPLPEGGPEPRSDGAKPGPREGKRSYS[Nle]EH[dF]RWGKPV
modifications: ends and bridges not checked
B8: ACTH1-24-linker-Furin site-linker-NDP-α-MSH (peptide)
peptide: SYSMEHFRWGKPVGKKRRPVKVYPGGGGSRRKRGGGGSSYS[Nle]EH[dF]RWGKPV
modifications: ends and bridges not checked
B9: ACTH1-24-natural N-terminal spacer-α-MSH (peptide)
peptide: SYSMEHFRWGKPVGKKRRPVKVYPPLPEGGPEPRSDGAKPGPREGKRSYSMEHFRWGKPV
B10: ACTH1-24-linker-MMP (broad) site-linker-NDP-α-MSH (peptide)
peptide: SYSMEHFRWGKPVGKKRRPVKVYPGGGGSPAGLVAGGGGSSYS[Nle]EH[dF]RWGKPV
modifications: ends and bridges not checked
B11: NDP-α-MSH-linker-Furin site-linker-ACTH1-24 (peptide)
peptide: Ac-SYS[Nle]EH[dF]RWGKPVGGGGSRRKRGGGGSSYSMEHFRWGKPVGKKRRPVKVYP
B12: ACTH1-24-natural C-terminal spacer-α-MSH (peptide)
peptide: SYSMEHFRWGKPVGKKRRPVKVYPELTGQRLREGDGPDGPADDGAGASYSMEHFRWGKPV

Target: MCR3 (human, UniProt P41968 1-323)
Sequence (P41968 whole entry): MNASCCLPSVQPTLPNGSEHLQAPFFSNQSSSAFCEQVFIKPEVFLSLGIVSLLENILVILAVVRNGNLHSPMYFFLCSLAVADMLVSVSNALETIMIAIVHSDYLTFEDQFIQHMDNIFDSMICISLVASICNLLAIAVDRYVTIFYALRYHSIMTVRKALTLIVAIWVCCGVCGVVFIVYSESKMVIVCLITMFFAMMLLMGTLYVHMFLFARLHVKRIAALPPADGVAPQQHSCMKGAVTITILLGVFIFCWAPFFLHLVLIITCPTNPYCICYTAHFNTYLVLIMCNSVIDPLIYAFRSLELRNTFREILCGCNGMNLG
Assay: cell-based or functional assay

Binder	MCR3 EC50 (nM); cAMP production, LANCE cAMP assay, CHO-MCR3 cells, cell pool B	MCR3 EC50 (nM); cAMP production, LANCE cAMP assay, CHO-MCR3 cells, cell pool C	MCR3 EC50 (nM); cAMP production, LANCE cAMP assay, CHO-MCR3 cells, cell pool A
B1	17 nM		
B2	6.8 nM		
B3	4.7 nM		
YVMGHFRWDRFGRRNSSSSGSSGAGQKR [γ-MSH with linker]	11 nM		
SYSMEHFRWGKPVGAARRPVKVYP [ACTH1-24-point-1-2]		10 nM	
B4	1.5 nM		
SYSMEHFRWGKPVGKKAAAVKVYP [ACTH1-24-point-3-5]		14 nM	
B5	1.66 nM		
B6	5.5 nM		
YVMGHFRWDRFGKRSYSMEHFRWGKPVGKKRRPVKVYP [γ-MSH-ACTH1-24]			38 nM
B7	0.62 nM		
SYSMEHFRWGKPVGKKRRAVKVYP [ACTH1-24-point-5]		10 nM	
YVMGHFRWDRFGSYSMEHFRWGKPVGKKRRPVKVYP [γ-MSH-ACTH1-24 without linker and cleavage site]			33 nM
SYSMEHFRWGKPVGKKRRPVKVYPSYS[Nle]EH[dF]RWGKPV (ends and bridges not checked) [ACTH1-24-NDP-α-MSH]		1.5 nM	
SYSMEHFRWGKPVGKKRRAVKVYPSYS[Nle]EH[dF]RWGKPV [ACTH1-24-point-5-NDP-α-MSH]		1.5 nM	
B8	0.453 nM		
SYSMEHFRWGKPVGKKRRPVKVYPGGGGSRRKRSYSMEHFRWGKPV [ACTH1-24-proconvertase-α-MSH]	6.1 nM		
SYSXEHXRWGKPVGKKRRPVKVYP (Nle and DPhe as printed: SYS-Nle-EH-DPhe-RWGKPVGKKRRPVKVYP) [NDP-ACTH]		0.21 nM	
SYSMEHFRWGKPVGKKRRPVKVYPNGAEDESAEAFPLEFKR [ACTH1-39]	18 nM		
B9	6.2 nM		
SYSMEHFRWGKPVGKKRRPVKVYPGGGGSRRKRSYS[Nle]EH[dF]RWGKPV [ACTH1-24-proconvertase-NDP-α-MSH]	0.51 nM		
B10	1 nM		
YVMGHFRWDRFGRRNSSSSGSSGAGQSYSMEHFRWGKPVGKKRRPVKVYP [γ-MSH-ACTH1-24 linker without cleavable site]			16 nM
B11	4 nM		
B12	22 nM		
[Nle]EH[dF]RW[βAla]G[βAla][Nle]EH[dF]RW [NDP-ACTH4-9-βAla-G-βAla-NDP-ACTH4-9]	25 nM		

Target: MCR4 (human, UniProt P32245 1-332)
Sequence (P32245 whole entry): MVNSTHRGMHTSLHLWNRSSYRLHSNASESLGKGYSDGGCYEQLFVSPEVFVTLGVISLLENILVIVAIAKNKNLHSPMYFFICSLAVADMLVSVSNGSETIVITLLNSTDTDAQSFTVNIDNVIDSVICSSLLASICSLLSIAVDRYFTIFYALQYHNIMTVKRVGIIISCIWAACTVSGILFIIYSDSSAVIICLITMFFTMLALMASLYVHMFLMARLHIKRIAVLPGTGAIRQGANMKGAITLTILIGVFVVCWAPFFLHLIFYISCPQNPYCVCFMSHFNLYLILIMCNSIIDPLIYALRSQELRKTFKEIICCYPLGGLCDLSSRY
Assay: cell-based or functional assay

Binder	MCR4 EC50 (nM); cAMP production, LANCE cAMP assay, CHO-MCR4 cells, cell pool B	MCR4 EC50 (nM); cAMP production, LANCE cAMP assay, CHO-MCR4 cells, cell pool C
B1	14 nM	
B2	0.8 nM	
B3	5.8 nM	
YVMGHFRWDRFGRRNSSSSGSSGAGQKR [γ-MSH with linker]	> 100 nM	
SYSMEHFRWGKPVGAARRPVKVYP [ACTH1-24-point-1-2]		62 nM
B4	1.9 nM	
SYSMEHFRWGKPVGKKAAAVKVYP [ACTH1-24-point-3-5]		128 nM
B5	8.7 nM	
B6	2.4 nM	
B7	1.6 nM	
SYSMEHFRWGKPVGKKRRAVKVYP [ACTH1-24-point-5]		60 nM
SYSMEHFRWGKPVGKKRRPVKVYPSYS[Nle]EH[dF]RWGKPV (ends and bridges not checked) [ACTH1-24-NDP-α-MSH]		2.3 nM
SYSMEHFRWGKPVGKKRRAVKVYPSYS[Nle]EH[dF]RWGKPV [ACTH1-24-point-5-NDP-α-MSH]		3.4 nM
B8	1.9 nM	
SYSMEHFRWGKPVGKKRRPVKVYPGGGGSRRKRSYSMEHFRWGKPV [ACTH1-24-proconvertase-α-MSH]	26 nM	
SYSXEHXRWGKPVGKKRRPVKVYP (Nle and DPhe as printed: SYS-Nle-EH-DPhe-RWGKPVGKKRRPVKVYP) [NDP-ACTH]		0.22 nM
SYSMEHFRWGKPVGKKRRPVKVYPNGAEDESAEAFPLEFKR [ACTH1-39]	31 nM	
B9	> 20 nM	
SYSMEHFRWGKPVGKKRRPVKVYPGGGGSRRKRSYS[Nle]EH[dF]RWGKPV [ACTH1-24-proconvertase-NDP-α-MSH]	1.6 nM	
B10	4.8 nM	
B11	6.5 nM	
B12	> 20 nM	
[Nle]EH[dF]RW[βAla]G[βAla][Nle]EH[dF]RW [NDP-ACTH4-9-βAla-G-βAla-NDP-ACTH4-9]	6.7 nM	

Target: MCR5 (human, UniProt P33032 1-325)
Sequence (P33032 whole entry): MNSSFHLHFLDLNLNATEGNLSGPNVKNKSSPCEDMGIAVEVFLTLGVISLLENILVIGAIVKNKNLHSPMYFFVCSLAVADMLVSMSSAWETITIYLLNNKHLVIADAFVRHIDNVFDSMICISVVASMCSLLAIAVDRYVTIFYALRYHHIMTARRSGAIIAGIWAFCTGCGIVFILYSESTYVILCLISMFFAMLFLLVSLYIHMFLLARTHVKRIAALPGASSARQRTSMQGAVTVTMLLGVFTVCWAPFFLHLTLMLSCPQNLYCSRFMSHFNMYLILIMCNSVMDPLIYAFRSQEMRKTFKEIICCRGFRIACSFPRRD
Assay: cell-based or functional assay

Binder	MCR5 EC50 (nM); cAMP production, LANCE cAMP assay, CHO-MCR5 cells, cell pool C
SYSMEHFRWGKPVGAARRPVKVYP [ACTH1-24-point-1-2]	275 nM
SYSMEHFRWGKPVGKKAAAVKVYP [ACTH1-24-point-3-5]	> 100 nM
SYSMEHFRWGKPVGKKRRAVKVYP [ACTH1-24-point-5]	> 100 nM
SYSMEHFRWGKPVGKKRRPVKVYPSYS[Nle]EH[dF]RWGKPV (ends and bridges not checked) [ACTH1-24-NDP-α-MSH]	24 nM
SYSMEHFRWGKPVGKKRRAVKVYPSYS[Nle]EH[dF]RWGKPV [ACTH1-24-point-5-NDP-α-MSH]	28 nM
SYSXEHXRWGKPVGKKRRPVKVYP (Nle and DPhe as printed: SYS-Nle-EH-DPhe-RWGKPVGKKRRPVKVYP) [NDP-ACTH]	1.1 nM

Target: MCR1 (human, UniProt Q01726 1-317)
Sequence (Q01726 whole entry): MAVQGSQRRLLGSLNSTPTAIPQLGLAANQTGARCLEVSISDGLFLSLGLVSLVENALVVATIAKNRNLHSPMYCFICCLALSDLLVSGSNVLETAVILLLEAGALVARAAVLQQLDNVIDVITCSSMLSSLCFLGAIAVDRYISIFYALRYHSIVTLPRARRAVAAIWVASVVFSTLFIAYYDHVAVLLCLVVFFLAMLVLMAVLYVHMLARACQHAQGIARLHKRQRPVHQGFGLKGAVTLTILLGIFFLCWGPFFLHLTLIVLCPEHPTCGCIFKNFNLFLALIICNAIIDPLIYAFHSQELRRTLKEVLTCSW
Assay: cell-based or functional assay

Binder	MCR1 EC50 (nM); cAMP production, LANCE cAMP assay, CHO-MCR1 cells, cell pool B	MCR1 EC50 (nM); cAMP production, LANCE cAMP assay, CHO-MCR1 cells, cell pool C	MCR1 EC50 (nM); cAMP production, LANCE cAMP assay, CHO-MCR1 cells, cell pool A	MCR1 EC50 (nM); cAMP production, LANCE cAMP assay, CHO-MCR1 cells, cell pool B (second value printed below the first)
B1	2.4 nM			
B2	0.17 nM			
B3	1.6 nM			
YVMGHFRWDRFGRRNSSSSGSSGAGQKR [γ-MSH with linker]	19 nM			
SYSMEHFRWGKPVGAARRPVKVYP [ACTH1-24-point-1-2]		0.43 nM		
B4	0.295 nM			
SYSMEHFRWGKPVGKKAAAVKVYP [ACTH1-24-point-3-5]		0.54 nM		
B5	0.8 nM			
B6	0.16 nM			
YVMGHFRWDRFGKRSYSMEHFRWGKPVGKKRRPVKVYP [γ-MSH-ACTH1-24]			22 nM	
B7	0.63 nM			
SYSMEHFRWGKPVGKKRRAVKVYP [ACTH1-24-point-5]		0.31 nM		
YVMGHFRWDRFGSYSMEHFRWGKPVGKKRRPVKVYP [γ-MSH-ACTH1-24 without linker and cleavage site]			12 nM	
SYSMEHFRWGKPVGKKRRPVKVYPSYS[Nle]EH[dF]RWGKPV (ends and bridges not checked) [ACTH1-24-NDP-α-MSH]		0.28 nM		
SYSMEHFRWGKPVGKKRRAVKVYPSYS[Nle]EH[dF]RWGKPV [ACTH1-24-point-5-NDP-α-MSH]		0.44 nM		
B8	0.202 nM			
SYSMEHFRWGKPVGKKRRPVKVYPGGGGSRRKRSYSMEHFRWGKPV [ACTH1-24-proconvertase-α-MSH]	0.92 nM			
SYSXEHXRWGKPVGKKRRPVKVYP (Nle and DPhe as printed: SYS-Nle-EH-DPhe-RWGKPVGKKRRPVKVYP) [NDP-ACTH]		0.11 nM		
SYSMEHFRWGKPVGKKRRPVKVYPNGAEDESAEAFPLEFKR [ACTH1-39]	0.55 nM			
B9	0.82 nM			
SYSMEHFRWGKPVGKKRRPVKVYPGGGGSRRKRSYS[Nle]EH[dF]RWGKPV [ACTH1-24-proconvertase-NDP-α-MSH]	0.44 nM			
B10	0.528 nM			0.36 nM
YVMGHFRWDRFGRRNSSSSGSSGAGQSYSMEHFRWGKPVGKKRRPVKVYP [γ-MSH-ACTH1-24 linker without cleavable site]			11 nM	
B11	0.333 nM			
B12	1.02 nM			
[Nle]EH[dF]RW[βAla]G[βAla][Nle]EH[dF]RW [NDP-ACTH4-9-βAla-G-βAla-NDP-ACTH4-9]	0.35 nM			
